# Measured values taken from IntAct's records for PubMed 23286197.
# B1: MIF4G domain-containing protein (Homo sapiens), A9UHW6 (parent)
# chain: MGEPSREEYKIQSFDAETQQLLKTALKDPGAVDLEKVANVIVDHSLQDCVFSKEAGRMCYAIIQAESKQAGQSVFRRGLLNRLQQEYQAREQLRARSLQGWVCYVTFICNIFDYLRVNNMPMMALVNPVYDCLFRLAQPDSLSKEEEVDCLVLQLHRVGEQLEKMNGQRMDELFVLIRDGFLLPTGLSSLAQLLLLEIIEFRAAGWKTTPAAHKYYYSEVSD
# Variants of: B1
# Settings: with slbp_human SLBP
row,effect of a mutation on the interaction,Variant
1,with no effect,MGEPSRAEYKIQSFDAETQQLLKTALKDPGAVDLEKVANVIVDHSLQDCVFSKEAGRMCYAIIQAESKQAGQSVFRRGLLNRLQQEYQAREQLRARSLQGWVCYVTFICNIFDYLRVNNMPMMALVNPVYDCLFRLAQPDSLSKEEEVDCLVLQLHRVGEQLEKMNGQRMDELFVLIRDGFLLPTGLSSLAQLLLLEIIEFRAAGWKTTPAAHKYYYSEVSD [E7A]
2,with no effect,MGEPSREEYKIQSFDAETQQLLKTALKDPGAVDLEKVANVIVDASLQDCVFSKEAGRMCYAIIQAESKQAGQSVFRRGLLNRLQQEYQAREQLRARSLQGWVCYVTFICNIFDYLRVNNMPMMALVNPVYDCLFRLAQPDSLSKEEEVDCLVLQLHRVGEQLEKMNGQRMDELFVLIRDGFLLPTGLSSLAQLLLLEIIEFRAAGWKTTPAAHKYYYSEVSD [H44A]
3,disrupting interaction,MGEPSREEYKIQSFDAETQQLLKTALKDPGAVDLEKVANVIVDHSLQDCVFSKEAGRMCYAIIQAESKQAGQSVFRRGLLNRLQQEYQAREQLRARSLQGWVCYVTFICNIFDYLRVNNMPMMALVNPVYDCLFRLAQPDSLSKEEEVDCLVLQLHRVGEQLEKMNGQRMDELFVLIRDGFLLPTGLSSLAQLLLLEIIEFAAAGWKTTPAAHKYYYSEVSD [R202A]
4,increasing interaction,MGEPSREEYKIQSFDAETQQLLKTALKDPGAVDLEKVANVIVDHSLQDCVFSKEAGRMCYAIIQAESKQAGQSVFRRGLLNRLQQEYQAREQLRARSLQGWVCYVTFICNIFDYLRVNNMPMMALVNPVYDCLFRLAQPDSLSKEEEVDCLVLQLHRVGEQLEKMNGQRMDELFVLIRDGFLLPTGLSSLAQLLLLEIIAFRAAGWKTTPAAHKYYYSEVSD [E200A]
5,with no effect,MGEPSREEYKIQSFDAETQQLLKTALKDPGAVDLEKVANVIVDHSLQDCVFSKEAGRMCYAIIQAESKQAGQSVFARGLLNRLQQEYQAREQLRARSLQGWVCYVTFICNIFDYLRVNNMPMMALVNPVYDCLFRLAQPDSLSKEEEVDCLVLQLHRVGEQLEKMNGQRMDELFVLIRDGFLLPTGLSSLAQLLLLEIIEFRAAGWKTTPAAHKYYYSEVSD [R76A]
6,with no effect,MGEPSREEYKIQSFDAETQQLLKTALKDPGAVDLEKVANVIVDHSLQDCVFSKEAGRMCYAIIQAESKQAGQSVARRGLLNRLQQEYQAREQLRARSLQGWVCYVTFICNIFDYLRVNNMPMMALVNPVYDCLFRLAQPDSLSKEEEVDCLVLQLHRVGEQLEKMNGQRMDELFVLIRDGFLLPTGLSSLAQLLLLEIIEFRAAGWKTTPAAHKYYYSEVSD [F75A]
7,with no effect,MGEPSREEYAIQSFDAETQQLLKTALKDPGAVDLEKVANVIVDHSLQDCVFSKEAGRMCYAIIQAESKQAGQSVFRRGLLNRLQQEYQAREQLRARSLQGWVCYVTFICNIFDYLRVNNMPMMALVNPVYDCLFRLAQPDSLSKEEEVDCLVLQLHRVGEQLEKMNGQRMDELFVLIRDGFLLPTGLSSLAQLLLLEIIEFRAAGWKTTPAAHKYYYSEVSD [K10A]
8,with no effect,MGEPSREEYKIQSFDAETQQLLKTALKDPGAVDLEKVANVIVDHSLQDCVFSKEAGRMCYAIIQAESKQAGQSVFRRGLLNALQQEYQAREQLRARSLQGWVCYVTFICNIFDYLRVNNMPMMALVNPVYDCLFRLAQPDSLSKEEEVDCLVLQLHRVGEQLEKMNGQRMDELFVLIRDGFLLPTGLSSLAQLLLLEIIEFRAAGWKTTPAAHKYYYSEVSD [R82A]
9,with no effect,MGEPSREEYKIQSFDAETQQLLKTALKDPGAVDLEKVANVIVDHSLQDCVFSKEAGRMCAAIIQAESKQAGQSVFRRGLLNRLQQEYQAREQLRARSLQGWVCYVTFICNIFDYLRVNNMPMMALVNPVYDCLFRLAQPDSLSKEEEVDCLVLQLHRVGEQLEKMNGQRMDELFVLIRDGFLLPTGLSSLAQLLLLEIIEFRAAGWKTTPAAHKYYYSEVSD [Y60A]
10,with no effect,MGEPSREEYKIQSFDAETQQLLKTALKDPGAVDLEKVANVIVDHSLQDCVFSKEAGRMCYAIIQAESKQAGQSVFRRGLLNRLQQEYQAREQLRARSLQGWVCYVTFICNIFDYLRVNNMPMMALVNPVYDCLFRLAQPDSLSKEEEVDCLVLQLHAVGEQLEKMNGQRMDELFVLIRDGFLLPTGLSSLAQLLLLEIIEFRAAGWKTTPAAHKYYYSEVSD [R157A]
11,with no effect,MGEPSREEYKIQSFDAETQQLLKTALKDPGAVDLEKVANVIVDHSLQDCVFSKEAGRMCYAIIAAESKQAGQSVFRRGLLNRLQQEYQAREQLRARSLQGWVCYVTFICNIFDYLRVNNMPMMALVNPVYDCLFRLAQPDSLSKEEEVDCLVLQLHRVGEQLEKMNGQRMDELFVLIRDGFLLPTGLSSLAQLLLLEIIEFRAAGWKTTPAAHKYYYSEVSD [Q64A]
12,with no effect,MGEPSREEYKIQSFDAETQQLLKTALKDPGAVDLEKVANVIVDHSLQDCVFSKEAGAMCYAIIQAESKQAGQSVFRRGLLNRLQQEYQAREQLRARSLQGWVCYVTFICNIFDYLRVNNMPMMALVNPVYDCLFRLAQPDSLSKEEEVDCLVLQLHRVGEQLEKMNGQRMDELFVLIRDGFLLPTGLSSLAQLLLLEIIEFRAAGWKTTPAAHKYYYSEVSD [R57A]
